Assay results from PMC6604950, “The ChlD subunit links the motor and porphyrin binding subunits of magnesium chelatase” (Biochemical Journal, 2019).

T1: ChlH (purified recombinant, Synechocystis) (Synechocystis sp. PCC 6803, UniProt P73020 1-1331, labelled with NHS-NT647 dye in the MST experiments; activated with EDC/NHS in the cross-linking experiment)
T1 construct: Magnesium chelatase subunit ChlH (~150 kDa), Synechocystis sp; PCC 6803; also called labelled ChlH
T1 sequence (looked up): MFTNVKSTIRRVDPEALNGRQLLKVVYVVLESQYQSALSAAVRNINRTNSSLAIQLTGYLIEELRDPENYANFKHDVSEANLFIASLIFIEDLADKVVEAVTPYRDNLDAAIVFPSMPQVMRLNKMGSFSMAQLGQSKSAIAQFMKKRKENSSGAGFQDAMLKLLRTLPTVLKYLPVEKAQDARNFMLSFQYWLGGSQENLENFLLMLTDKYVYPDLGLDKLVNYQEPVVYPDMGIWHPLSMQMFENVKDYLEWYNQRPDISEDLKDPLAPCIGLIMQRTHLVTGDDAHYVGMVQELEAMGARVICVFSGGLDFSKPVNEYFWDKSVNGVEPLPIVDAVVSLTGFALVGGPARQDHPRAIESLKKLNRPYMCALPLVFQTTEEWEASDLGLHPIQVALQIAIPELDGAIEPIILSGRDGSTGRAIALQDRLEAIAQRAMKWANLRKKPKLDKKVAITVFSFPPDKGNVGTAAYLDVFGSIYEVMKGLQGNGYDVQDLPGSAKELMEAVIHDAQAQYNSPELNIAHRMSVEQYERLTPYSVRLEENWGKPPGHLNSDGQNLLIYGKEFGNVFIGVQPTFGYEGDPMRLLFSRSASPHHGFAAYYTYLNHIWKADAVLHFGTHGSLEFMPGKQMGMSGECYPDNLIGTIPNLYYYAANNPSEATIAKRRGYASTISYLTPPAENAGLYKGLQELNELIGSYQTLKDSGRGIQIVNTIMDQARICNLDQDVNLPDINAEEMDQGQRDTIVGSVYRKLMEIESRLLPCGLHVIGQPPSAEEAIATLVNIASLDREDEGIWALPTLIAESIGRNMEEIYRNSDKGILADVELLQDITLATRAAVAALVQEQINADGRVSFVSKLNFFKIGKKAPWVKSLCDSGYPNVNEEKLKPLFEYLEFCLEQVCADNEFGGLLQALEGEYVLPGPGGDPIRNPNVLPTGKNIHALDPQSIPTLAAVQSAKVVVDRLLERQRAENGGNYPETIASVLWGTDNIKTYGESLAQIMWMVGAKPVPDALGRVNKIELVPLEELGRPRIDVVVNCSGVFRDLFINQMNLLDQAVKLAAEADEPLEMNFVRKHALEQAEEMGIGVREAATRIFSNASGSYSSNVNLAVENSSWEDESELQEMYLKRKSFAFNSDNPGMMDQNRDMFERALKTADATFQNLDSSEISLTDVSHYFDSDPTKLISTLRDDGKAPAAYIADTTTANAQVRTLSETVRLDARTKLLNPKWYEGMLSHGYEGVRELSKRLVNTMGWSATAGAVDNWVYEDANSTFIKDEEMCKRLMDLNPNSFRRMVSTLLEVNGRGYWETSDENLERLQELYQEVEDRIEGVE

B1: ChlD truncation B (AAA+ domain with the polyproline region) (domain or fragment)
chain: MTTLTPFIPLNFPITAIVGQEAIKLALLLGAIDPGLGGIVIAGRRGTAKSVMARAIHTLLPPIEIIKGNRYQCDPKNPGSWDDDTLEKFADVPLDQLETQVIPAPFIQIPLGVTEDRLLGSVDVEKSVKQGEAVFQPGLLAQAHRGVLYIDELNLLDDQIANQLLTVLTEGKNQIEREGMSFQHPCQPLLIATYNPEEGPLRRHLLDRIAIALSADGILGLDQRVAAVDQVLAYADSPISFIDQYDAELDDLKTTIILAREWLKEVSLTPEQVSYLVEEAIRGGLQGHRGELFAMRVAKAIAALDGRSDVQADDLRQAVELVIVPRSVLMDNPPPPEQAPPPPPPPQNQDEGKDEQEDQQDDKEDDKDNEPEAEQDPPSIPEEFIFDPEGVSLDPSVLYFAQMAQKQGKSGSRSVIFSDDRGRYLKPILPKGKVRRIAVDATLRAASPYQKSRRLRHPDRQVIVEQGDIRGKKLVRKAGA
B2: ChlD truncation A (AAA+ domain alone) (domain or fragment)
chain: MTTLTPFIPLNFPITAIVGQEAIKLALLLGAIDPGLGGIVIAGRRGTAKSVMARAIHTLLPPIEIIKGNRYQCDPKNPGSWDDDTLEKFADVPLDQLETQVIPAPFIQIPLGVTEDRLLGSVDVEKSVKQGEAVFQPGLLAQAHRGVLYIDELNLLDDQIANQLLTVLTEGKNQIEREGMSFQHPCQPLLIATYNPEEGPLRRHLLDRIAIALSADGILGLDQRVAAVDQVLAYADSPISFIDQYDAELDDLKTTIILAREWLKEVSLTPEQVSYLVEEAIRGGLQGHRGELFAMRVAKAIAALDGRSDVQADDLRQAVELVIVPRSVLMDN
B3: ChlD wild type (purified recombinant, Synechocystis) (natural protein)
chain: not shown
modifications: labelled with NHS-NT647 dye where it was the labelled partner in MST (ChlD-ChlD titration)
notes: Magnesium chelatase subunit ChlD (~75 kDa), Synechocystis sp; PCC 6803; also called WT ChlD
B4: ChlD D487E (natural protein)
chain: not shown
notes: Magnesium chelatase subunit ChlD, Synechocystis sp; PCC 6803, MIDAS motif point mutant; also called MIDAS mutant; source: E. coli, purified as wild type
B5: ChlD S491A (natural protein)
chain: not shown
notes: as for B4
B6: ChlD S554R (natural protein)
chain: not shown
notes: Magnesium chelatase subunit ChlD, Synechocystis sp; PCC 6803, MIDAS motif point mutant; also called type II MIDAS mutant; source: E. coli, purified as wild type
B7: ChlD QuinE (E510Q/E513Q/E600T/E603P/E605T) (natural protein)
chain: not shown
notes: Magnesium chelatase subunit ChlD, Synechocystis sp; also called quintuplet mutant of ChlD; source: E. coli, purified (as described previously)
B8: ChlD S489A (natural protein)
chain: not shown
notes: as for B4

What was measured:
[1] = target: T1, ChlH (purified recombinant, …); test: MST; ChlD (or variant) titrated into 20 nM NT647-labelled ChlH; 50 mM Tris/NaOH, 0.2% Pluronic F-127, pH 7.8, without Mg2+; single-site model; Kd is an empirical description over all oligomeric states of ChlD; settings: both partners purified
[2] = target: T1, ChlH (purified recombinant, …); test: MST; ChlD (or variant) titrated into 20 nM NT647-labelled ChlH; 50 mM Tris/NaOH, 0.2% Pluronic F-127, pH 7.8, with 10 mM Mg2+; single-site model; Kd is an empirical description over all oligomeric states of ChlD; settings: both partners purified
[3] = target: the molecule itself; test: MST; control ChlD-ChlD titration (Supplementary Figure S3); monomer to dimer
[4] = target: T1, ChlH (purified recombinant, …); test: cell-based or functional assay

Row | Binder | Kd [1] | Kd [2] | Kd [3] | stoichiometry N [3] | magnesium chelatase activity, rate relative to the wild-type protein [4]
1 | B1 | 6760 nM | 10500 nM |  |  | 
2 | B2 | 5930 nM | 14600 nM |  |  | 
3 | B3 | 2100 nM | 331 nM | 296 nM | 2 | 
4 | B4 | 1490 nM | 842 nM |  |  | 
5 | B5 | 351 nM | 147 nM |  |  | 
6 | B6 | 988 nM | 481 nM |  |  | ~5%
7 | B7 | 512 nM | 339 nM |  |  | 
8 | B8 | 3210 nM | 1980 nM |  |  | 
